Assay results published in patent publication US20050208042A1 (GENETICS INSTITUTE, published 2005).
Blank lines part the entries; values can stand above or below the binder they belong to.

Tests used:
[1] = target: T1, human B7-2 (CD86) expressed on the cell surface (CHO/hB7-2 cells) (human, UniProt P42081 24-329); assay: direct binding of 125I-labeled antibody to CHO/hB7-2 cells, half-maximal binding
T1 construct: whole, on cells; Also used for native B7-2 on human PBL in the MLR row under functional; also called rhB7-2
T1 sequence (looked up): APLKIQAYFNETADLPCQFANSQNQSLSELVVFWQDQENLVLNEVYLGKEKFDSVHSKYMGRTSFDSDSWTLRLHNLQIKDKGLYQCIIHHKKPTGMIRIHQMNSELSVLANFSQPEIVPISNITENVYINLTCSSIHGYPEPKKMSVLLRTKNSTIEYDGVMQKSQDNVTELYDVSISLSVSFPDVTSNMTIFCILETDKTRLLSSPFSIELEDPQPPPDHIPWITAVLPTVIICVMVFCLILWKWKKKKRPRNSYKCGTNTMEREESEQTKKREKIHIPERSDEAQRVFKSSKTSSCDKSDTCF
Description: (§1) Binding assays were begun by plating cells onto 96-well tissue culture plates at 10,000 CHO/hB7-2 cells per well. Two days later, adherent cells were gently washed with assay buffer containing nonfat dry milk protein (for blocking nonspecific binding) and sodium azide (to prevent internalization of antibodies by cells). For direct binding assays, ¹²⁵I-labeled anti-B7 antibodies (¹²⁵I-murine anti-human B7-2; 826 cpm/fmol; humanized anti-human B7-2, 883 cpm/fmol) were serially diluted in assay buffer and incubated on cells overnight, allowing antibodies to bind to cell-surface B7 and come to equilibrium. Unbound antibody was gently washed from cells, and bound ¹²⁵I-labeled antibody was detected using an ¹²⁵I scintillant and photodetector system. Non-specific binding to CHO cells was determined for each dilution in the same manner, but on cells expressing the B7-1 molecule that is not recognized by the antibody being tested.
The data, means of triplicate wells with nonspecific binding subtracted, were fit to a hyperbolic saturation curve using Graphpad PrismJ software. […] Both murine and humanized anti-B7-2 antibodies recognize cell surface expressed hB7-2 with high affinity.

[2] = target: T2, human B7-1 (CD80) expressed on the cell surface (CHO/hB7-1 cells) (human, UniProt P33681 35-288); assay: 125I direct binding, CHO cells expressing B7-1 as control for non-specific binding
T2 construct: whole, on cells; Also used for native B7-1 on human PBL in the MLR; also called rhB7-1
T2 sequence (looked up): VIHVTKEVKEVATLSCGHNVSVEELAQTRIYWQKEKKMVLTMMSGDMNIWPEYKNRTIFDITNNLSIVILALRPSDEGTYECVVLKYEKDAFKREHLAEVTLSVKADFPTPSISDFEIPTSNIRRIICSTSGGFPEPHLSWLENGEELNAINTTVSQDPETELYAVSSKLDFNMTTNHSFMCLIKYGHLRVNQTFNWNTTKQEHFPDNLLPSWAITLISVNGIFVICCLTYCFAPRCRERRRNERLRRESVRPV
Description: as §1

[3] = target: T1, human B7-2 (CD86) expressed on the cell …; assay: cell-based or functional assay
[4] = target: T3, human B7-2Ig (recombinant soluble hB7-2Ig) (human, UniProt P42081 24-247); assay: SPR (BIACORE), hB7-2Ig immobilized, bivalent model, mean of three runs
T3 construct: extracellular domain; Secreted by CHO cells, purified on protein A, immobilized on the BIACORE chip; not shown: hinge-CH2-CH3 domains of the human IgG1 heavy chain
T3 sequence (looked up): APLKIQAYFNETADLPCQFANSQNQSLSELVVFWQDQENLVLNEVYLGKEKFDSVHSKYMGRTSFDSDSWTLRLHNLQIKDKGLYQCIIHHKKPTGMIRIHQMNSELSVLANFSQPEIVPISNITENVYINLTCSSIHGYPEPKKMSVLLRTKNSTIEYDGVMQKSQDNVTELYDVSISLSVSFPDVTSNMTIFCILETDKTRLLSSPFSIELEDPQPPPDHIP
Experimental: (§2) The BIACORE® biosensor (BIACORE®; Uppsalla, Sweden) was used to determine binding kinetics of murine and humanized anti-B7-2 human antibodies to human B7-2Ig. Hunan B7-2Ig (hB7-2Ig) was immobilized onto the dextran matrix of a BIACORE® sensor chip. Humanized and murine anti-human B7-2 were tested at 200, 100, 50, and 20 nM. Each dilution was tested 4 times per run and a total of three separate runs performed. Anti-human B7-2 antibody binding was measured in real time by Surface Plasmon Resonance (SPR) and global analysis was performed using the bivalent binding model in BIA evaluation software (version 3.1). For each sample, the association (kₐ), dissociation (kd), and equilibrium dissociation constant (KD) were determined.

[5] = target: T1, human B7-2 (CD86) expressed on the cell …; assay: competitive binding against 125I-murine 3D1 on CHO/hB7-2 cells
Experimental: (§3) The relative affinities, of the murine and humanized 3D1 antibodies for the B7-2 antigen were determined by competitive binding assays. Three-fold serial dilutions of unlabeled humanized or murine 3D1 antibodies were mixed with a fixed amount of radio-iodinated murine 3D1 antibody (40,000-50,000 cpm per test in PBS containing 2% fetal calf serum).
(§4) 1×10⁵ CHO cells expressing cell surface rhB7-2 (CHO/hB7-2) were added subsequently and the mixture (in a total volume of 200 μL) was incubated for 2 hr at 4° C. with gentle shaking. The cell-antibody suspension was then transferred to Sarstedt Micro Tubes (part #72.702) containing 100 μL of 80% dibutyl phthalate-20% olive oil. After centrifugation in a microfuge, the Sarstedt tubes were plunged into dry ice for several minutes. Cell-bound ¹²⁵I was determined by clipping tips of each tube (containing cell pellets) into scintillation vials and counting in a gamma counter. Bound and free counts were determined and the ratio plotted against the concentrations of the cold competitor antibodies according to the method of Berzofsky and Berkower (J. A. Berzofsky and I. J. Berkower, in Fundamental Immunology 9ed. W. E. Paul), Raven Press (New York), 595 (1984)).

[6] = target: T1, human B7-2 (CD86) expressed on the cell …; assay: competition binding on CHO/hB7-2 cells: unlabeled competitor against 125I-murine 3D1 tracer, bound/free ratio
Experimental: as §3, §4

[7] = target: T2, human B7-1 (CD80) expressed on the cell …; assay: competitive binding against 125I-humanized 1F1 on CHO cells expressing rhB7-1
Experimental: as §4, with “The affinity of the mouse and humanized 1F1 antibodies for the B7-1 antigen was determined by competitive binding with radio-iodinated humanized 1F1 antibody. Three-fold serial dilutions of unlabeled mouse or humanized 1F1 antibodies were mixed with a fixed amount of radio-iodinated humanized 1F1 antibody (40,000-50,000 cpm per test) in PBS containing 2% fetal calf serum, 0.1% sodium azide. 3×10⁴” for “1×10⁵”, “rhB7-1” for “rhB7-2 (CHO/hB7-2)”, “clipping the” for “clipping”, “Immunology,” for “Immunology 9ed.”, “Paul,” for “Paul),”, “Press, New York, pp. 595-644” for “Press (New York), 595”

[8] = target: T2, human B7-1 (CD80) expressed on the cell …; assay: competition binding on CHO cells expressing rhB7-1: unlabeled competitor against 125I-humanized 1F1 tracer, bound/free ratio
Experimental: as §4, with “The affinity of the mouse and humanized 1F1 antibodies for the B7-1 antigen was determined by competitive binding with radio-iodinated humanized 1F1 antibody. Three-fold serial dilutions of unlabeled mouse or humanized 1F1 antibodies were mixed with a fixed amount of radio-iodinated humanized 1F1 antibody (40,000-50,000 cpm per test) in PBS containing 2% fetal calf serum, 0.1% sodium azide. 3×10⁴” for “1×10⁵”, “rhB7-1” for “rhB7-2 (CHO/hB7-2)”, “clipping the” for “clipping”, “Immunology,” for “Immunology 9ed.”, “Paul,” for “Paul),”, “Press, New York, pp. 595-644” for “Press (New York), 595”

[9] = target: T3, human B7-2Ig (recombinant soluble …); assay: SPR (BIACORE), hB7-2Ig immobilized
Experimental: as §2

Kd [1]: ~1 nM | binding result [2]: no binding | IC50 of inhibition of CD28+ human T cell proliferation stimulated with PMA and CHO/hB7-2 cells [3]: 0.05 nM | Kd [4]: 5.1 nM
B1: humanized anti-human B7-2 mAb (humanized 3D1), isotype not stated in the example (antibody, V domains shown)
VH: QVQLVQSGAEVKKPGSSVKVSCKASGYTFTDYAIQWVRQAPGQGLEWIGVINIYYDNTNYNQKFKGKATMTVDKSTSTAYMELSSLRSEDTAVYYCARAAWYMDYWGQGTLVTVSS
VL: DIVLTQSPDSLAVSLGERATISCKSSQSLLNSRTRENYLAWYQQKPGQPPKLLIYWASTRESGVPDRFSGSGSGTDFTLTISSLQAEDVAVYYCTQSYNLYTFGQGTKVEIK
notes: Same variable regions; The entries include signal peptides (see the note of m2); also called humanized anti-B7-2; humanized anti-hB7-2

Ka [5]: ~1e+09 M⁻¹ | IC50 (read off the curve) [6]: ~1 nM
B2: humanized 3D1 antibody, IgG4 form (antibody, V domains shown)
VH: B1 VH
VL: B1 VL
notes: Human gamma 4 constant region (pVg4 vector) and human kappa light chain (pVk); also called humanized IgG4 anti-human B7-2; hu3D1

Ka [5]: ~1e+09 M⁻¹
B3: humanized 3D1 antibody, IgG2.M3 form (antibody, V domains shown)
VH: B1 VH
VL: B1 VL
notes: Human gamma 2 constant region variant M3 (Val and Gly at positions 234 and 237 replaced with Ala; pVg2.M3 vector) and human kappa light chain; The entries include signal peptides (see the note of m2); also called humanized IgG2.M3 anti-human B7-2; hu3D1

Ka [7]: ~1e+09 M⁻¹ | IC50 (read off the curve) [8]: ~1 nM
B4: humanized 1F1 antibody, IgG2.M3 form (antibody, V domains shown)
VH: EVQLVQSGAEVKKPGASVKVSCKPSGFNIKDYYMHWVRQAPGQGLEWIGWIDPENGNTLYDPKFQGKATITADTSTSTAYMELSSLRSEDTAVYYCAREGLFFAYWGQGTLVTVSS
VL: DIQMTQSPSSLSASVGDRVTITCSVSSSISSSNLHWYQQKPGKAPKPLIYGTSNLASGVPSRFSGSGSGTDYTLTISSLQPEDVATYYCQQWSSYPLTFGQGTKVEIK
notes: Human gamma 2 constant region variant M3 (Val and Gly at positions 234 and 237 replaced with Ala) and human kappa light chain; also called hu1F1; the IgG2.M3 antibody

Kd [1]: ~1 nM | binding result [2]: no binding | Ka [5]: ~1e+09 M⁻¹ | fold higher affinity than the humanized anti-B7-2 mAb [9]: ~2.8 fold | IC50 of inhibition of CD28+ human T cell proliferation stimulated with PMA and CHO/hB7-2 cells [3]: 0.072 nM | Kd [4]: 1.8 nM
B5: murine 3D1 monoclonal antibody (murine anti-human B7-2 mAb) (antibody, V domains shown)
VH: QVQLQQSGPELVRPGESVKISCKGSGYTFTDYAIQWVKQSHAKSLEWIGVINIYYDNTNYNQKFKGKATMTVDKSSSTAYMELARLTSEDSAIYYCARAAWYMDYWGQGTSVTVSS
VL: DIVLSQSPSSLAVSAGEKVTMSCKSSQSLLNSRTRENYLAWYQQKPGQSPKLLIYWASTRESGVPDRFTGSGSGTDFTLTISSVQAEDLAVYYCTQSYNLYTFGGGTKLEIK
notes: Hybridoma mouse antibody with kappa light chain; also called HF2.3D1; mouse 3D1
